Protein stability index data for 67 sequences are collected here from the supplement of paper PMC10724198.

± gives the standard deviation of the averaged measurements.

The data set deals with Saccharomyces cerevisiae. Put plainly: protein stability index of tFT-peptide fusion (C-terminal peptide) (PSI (0-1 scale)); higher = more stable (slower turnover). To be noted: temperature: 30 C. As to the method:
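MPS profiling in S. cerevisiae of the yeast C-terminome library: the last 12 aa of each annotated ORF are fused to the C-terminus of a sfGFP-mCherry timer, after a GGGS linker. Cells are FACS-sorted into 8 mCherry/sfGFP bins and deep-sequenced. PSI runs from 0 (unstable) to 1 (stable); wild type and das1Δ backgrounds, two technical replicates each.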

Setting [1] is: genetic background: das1 deletion.

With EAAKKSEKKAKK [RPL34A C-terminal 12 aa], the protein stability index is, setting by setting: under setting [1], 0.695 ± 0.0092; (genetic background: wild type) 0.689 ± 0.023.

Consider EAAKYFREQYKN [MET6 C-terminal 12 aa], for which the protein stability index reads like this: under setting [1], 0.7045 ± 0.0028; (genetic background: wild type) 0.7172 ± 0.0068.

For EATIENLKRLKL [VAS1 C-terminal 12 aa], the protein stability index amounted to 0.693 ± 0.016 under setting [1] and 0.642 ± 0.0087 (genetic background: wild type).

As to ECPGGCPGVAFI [RTC1 C-terminal 12 aa], the protein stability index by setting is: under setting [1], 0.7077 ± 0.0053; (genetic background: wild type) 0.685 ± 0.024.

Regarding EDDITVVVVRVD [PTC7 C-terminal 12 aa], the protein stability index runs as follows: under setting [1], 0.646 ± 0.019; (genetic background: wild type) 0.673 ± 0.02.

For the sequence EDEFLINSDDEM [CUE5 C-terminal 12 aa], the protein stability index was 0.726 ± 0.064 under setting [1] and 0.716 ± 0.037 (genetic background: wild type).

Turning to EDWSVEELIVDL [RPO26 C-terminal 12 aa], the protein stability index amounted to 0.681 ± 0.009 under setting [1] and 0.71 ± 0.022 (genetic background: wild type).

Consider EEANEDEEEDDW [MYO5 C-terminal 12 aa], for which the protein stability index by setting is: under setting [1], 0.6825 ± 0.0025; (genetic background: wild type) 0.706 ± 0.015.

Regarding EEEAGYSDVEME [UTP5 C-terminal 12 aa], the protein stability index under setting [1] worked out at 0.6936 ± 0.005 and the protein stability index (genetic background: wild type) turned out to be 0.698 ± 0.013.

In the case of EEEKRRRKKGIR [SPT2 C-terminal 12 aa], the protein stability index is, setting by setting: under setting [1], 0.706 ± 0.022; (genetic background: wild type) 0.662 ± 0.0095.

With EEGEVVEEEAEK [HSP78 C-terminal 12 aa], the protein stability index by setting is: under setting [1], 0.678 ± 0.022; (genetic background: wild type) 0.6852 ± 0.0044.

For the sequence EELEAEQIDVFS [PRP8 C-terminal 12 aa], the protein stability index by setting is: under setting [1], 0.689 ± 0.023; (genetic background: wild type) 0.684 ± 0.02.

The sequence EELFEEDSFYKY [NDT80 C-terminal 12 aa] registered a protein stability index under setting [1] of 0.736 ± 0.011 and a protein stability index (genetic background: wild type) of 0.759 ± 0.019.

With EEPQLDLLDDVL [MTW1 C-terminal 12 aa], the protein stability index runs as follows: under setting [1], 0.706 ± 0.03; (genetic background: wild type) 0.709 ± 0.084.

For EESEKQLYTVLK [CUS1 C-terminal 12 aa], the protein stability index by setting is: under setting [1], 0.688 ± 0.0087; (genetic background: wild type) 0.676 ± 0.01.

As for EETLEFDPTLLV [YBL062W C-terminal 12 aa], the protein stability index by setting is: under setting [1], 0.707 ± 0.0077; (genetic background: wild type) 0.692 ± 0.023.

As to EFEENPNPTVEN [HSP42 C-terminal 12 aa], the protein stability index came to 0.731 ± 0.033 under setting [1] and 0.702 ± 0.054 (genetic background: wild type).

As for EFHQDFFSKYRN [ALT2 C-terminal 12 aa], the protein stability index under setting [1] turned out to be 0.707 ± 0.011 and the protein stability index (genetic background: wild type) was 0.729 ± 0.027.

Consider EGENVRSKVERF [YKL070W C-terminal 12 aa], for which the protein stability index runs as follows: under setting [1], 0.7262 ± 0.0046; (genetic background: wild type) 0.704 ± 0.053.

Take EGKEEIIYDSEG [RAD55 C-terminal 12 aa]: the protein stability index under setting [1] stood at 0.6913 ± 0.006 and the protein stability index (genetic background: wild type) was 0.677 ± 0.047.

Regarding EGSGEFVGEMEI [MRS6 C-terminal 12 aa], the protein stability index runs as follows: under setting [1], 0.708 ± 0.0019; (genetic background: wild type) 0.714 ± 0.067.

For EHTMLAKAQGHD [XPT1 C-terminal 12 aa], the protein stability index reads like this: under setting [1], 0.71 ± 0.022; (genetic background: wild type) 0.6558 ± 0.0011.

EIDGQFCIFQVV [YJL107C C-terminal 12 aa] showed a protein stability index under setting [1] of 0.711 ± 0.013 and a protein stability index (genetic background: wild type) of 0.647 ± 0.031.

For EIKPYLRFTKSK [PRX1 C-terminal 12 aa], the protein stability index runs as follows: under setting [1], 0.692 ± 0.011; (genetic background: wild type) 0.718 ± 0.085.

EIRKRRASSLKA [RPS6A C-terminal 12 aa]: the protein stability index came out at 0.649 ± 0.021 under setting [1] and 0.646 ± 0.0092 (genetic background: wild type).

Take EKIKRDLALKKG [PET100 C-terminal 12 aa]: the protein stability index reads like this: under setting [1], 0.697 ± 0.045; (genetic background: wild type) 0.661 ± 0.059.

Turning to EKLAALVENAEV [PUF3 C-terminal 12 aa], the protein stability index stood at 0.68 ± 0.0089 under setting [1] and 0.679 ± 0.04 (genetic background: wild type).

Consider “EKLQLWHSMSND [YOR008C-A C-terminal 12 aa]”, for which the protein stability index came out at 0.698 ± 0.0035 under setting [1] and 0.72 ± 0.033 (genetic background: wild type).

For the sequence ELKAHNINVVDK [PNC1 C-terminal 12 aa], the protein stability index was 0.662 ± 0.037 under setting [1] and 0.675 ± 0.044 (genetic background: wild type).

Consider ELNEEKRRSALP [SAK1 C-terminal 12 aa], for which the protein stability index by setting is: under setting [1], 0.687 ± 0.023; (genetic background: wild type) 0.686 ± 0.016.

ELQEKVEQLSKW [POL3 C-terminal 12 aa]: the protein stability index under setting [1] was 0.7208 ± 0.00089 and the protein stability index (genetic background: wild type) was 0.688 ± 0.026.

Turning to ELYNIIVKSVPK [YRB2 C-terminal 12 aa], the protein stability index reads like this: under setting [1], 0.673 ± 0.0039; (genetic background: wild type) 0.695 ± 0.045.

The sequence EMTHSLFKKYGI [CRC1 C-terminal 12 aa] came in with a protein stability index under setting [1] of 0.705 ± 0.017 and a protein stability index (genetic background: wild type) of 0.722 ± 0.047.

As to ENFNEVFEAIRS [RSC3 C-terminal 12 aa], the protein stability index reads like this: under setting [1], 0.6822 ± 0.0037; (genetic background: wild type) 0.709 ± 0.016.

ENFSSALQSPIF [YDL152W C-terminal 12 aa] yielded a protein stability index under setting [1] of 0.733 ± 0.0084 and a protein stability index (genetic background: wild type) of 0.754 ± 0.055.

With ENVLFYIGRVNK [COB C-terminal 12 aa], the protein stability index is, setting by setting: under setting [1], 0.726 ± 0.026; (genetic background: wild type) 0.669 ± 0.017.

On to EPYNIKYSNSKK [MSD1 C-terminal 12 aa], for which the protein stability index was 0.7 ± 0.03 under setting [1] and 0.66695 ± 2.1e-06 (genetic background: wild type).

EQLADYLIGVQY [PFY1 C-terminal 12 aa]: the protein stability index worked out at 0.686 ± 0.014 under setting [1] and 0.6754 ± 0.0032 (genetic background: wild type).

With EQQNFEKCNEYI [NPL6 C-terminal 12 aa], the protein stability index is 0.691 ± 0.01 under setting [1] and 0.655 ± 0.007 (genetic background: wild type).

With EQVRFKNINYKS [AZF1 C-terminal 12 aa], the protein stability index came out at 0.654 ± 0.0011 under setting [1] and 0.673 ± 0.014 (genetic background: wild type).

In the case of ERAYMYYLRNGK [NAM9 C-terminal 12 aa], the protein stability index runs as follows: under setting [1], 0.656 ± 0.023; (genetic background: wild type) 0.625 ± 0.021.

ERCSLQNPFYSI [YNR066C C-terminal 12 aa] gave a protein stability index under setting [1] of 0.7315 ± 0.0067 and a protein stability index (genetic background: wild type) of 0.696 ± 0.0016.

ERTSLLSGETQT [YPQ2 C-terminal 12 aa]: the protein stability index was determined as 0.67739 ± 0.00033 under setting [1] and 0.684 ± 0.014 (genetic background: wild type).

As for ESEYREQQQNPQ [SHQ1 C-terminal 12 aa], the protein stability index reads like this: under setting [1], 0.688 ± 0.017; (genetic background: wild type) 0.686 ± 0.085.

Take ESFVECFESFIE [PBI1 C-terminal 12 aa]: the protein stability index runs as follows: under setting [1], 0.714 ± 0.03; (genetic background: wild type) 0.682 ± 0.033.

Regarding ESGPSIVHHKCF [ACT1 C-terminal 12 aa], the protein stability index runs as follows: under setting [1], 0.6875 ± 0.003; (genetic background: wild type) 0.6963 ± 0.0026.

For the sequence ESTHKEAMGEKN [MNN5 C-terminal 12 aa], the protein stability index reads like this: under setting [1], 0.648 ± 0.014; (genetic background: wild type) 0.675 ± 0.016.

Regarding EVEKIVKKVLKD [DBP5 C-terminal 12 aa], the protein stability index runs as follows: under setting [1], 0.7225 ± 0.0038; (genetic background: wild type) 0.6553 ± 0.0058.

With EWTKLYAKKKPE [UBC13 C-terminal 12 aa], the protein stability index runs as follows: under setting [1], 0.6853 ± 0.0049; (genetic background: wild type) 0.711 ± 0.01.

The sequence EYEYEDDGLFER [GCD1 C-terminal 12 aa] came in with a protein stability index under setting [1] of 0.695 ± 0.017 and a protein stability index (genetic background: wild type) of 0.692 ± 0.029.

For the sequence “FEGKPLYQMLKI [YAL047W-A C-terminal 12 aa]”, the protein stability index stood at 0.638 ± 0.031 under setting [1] and 0.551 ± 0.011 (genetic background: wild type).

FFFLLTSLLSPF [LCL1 C-terminal 12 aa] yielded a protein stability index under setting [1] of 0.637 ± 0.029 and a protein stability index (genetic background: wild type) of 0.592 ± 0.0065.

Take FFKQAEQEQADV [PRP11 C-terminal 12 aa]: the protein stability index was 0.7024 ± 0.001 under setting [1] and 0.698 ± 0.0072 (genetic background: wild type).

In the case of “FFRYFTFSSSYW [YDR464C-A C-terminal 12 aa]”, the protein stability index was 0.7002 ± 0.004 under setting [1] and 0.661 ± 0.022 (genetic background: wild type).

Consider FFSKKRPNIDSK [YOL037C C-terminal 12 aa], for which the protein stability index reads like this: under setting [1], 0.696 ± 0.011; (genetic background: wild type) 0.684 ± 0.058.

Regarding FGTWEIVIRLLS [RIM2 C-terminal 12 aa], the protein stability index worked out at 0.382 ± 0.0062 under setting [1] and 0.123 ± 0.018 (genetic background: wild type).

For the sequence FILKAKLEWIKW [YOL075C C-terminal 12 aa], the protein stability index is, setting by setting: under setting [1], 0.515 ± 0.018; (genetic background: wild type) 0.578 ± 0.11.

FKQSEITLYRTR [PEP8 C-terminal 12 aa] showed a protein stability index under setting [1] of 0.693 ± 0.032 and a protein stability index (genetic background: wild type) of 0.722 ± 0.11.

Regarding FKSGQNMLKDEL [SCJ1 C-terminal 12 aa], the protein stability index is 0.681 ± 0.022 under setting [1] and 0.648 ± 0.0073 (genetic background: wild type).

Regarding FLFHCVHLLLSG [YDR535C C-terminal 12 aa], the protein stability index reads like this: under setting [1], 0.511 ± 0.011; (genetic background: wild type) 0.4909 ± 0.003.

For FLRNFKDNRFLQ [YOR121C C-terminal 12 aa], the protein stability index under setting [1] turned out to be 0.726 ± 0.025 and the protein stability index (genetic background: wild type) was 0.6968 ± 0.004.

Regarding “FPLLMSEIEDFR [YNL067W-A C-terminal 12 aa]”, the protein stability index turned out to be 0.718 ± 0.019 under setting [1] and 0.695 ± 0.033 (genetic background: wild type).

In the case of FPRNLAKSVTVE [GFA1 C-terminal 12 aa], the protein stability index under setting [1] was 0.599 ± 0.0094 and the protein stability index (genetic background: wild type) worked out at 0.593 ± 0.011.

On to FQVVSKKKGRKH [SMY2 C-terminal 12 aa], for which the protein stability index is, setting by setting: under setting [1], 0.691 ± 0.017; (genetic background: wild type) 0.72 ± 0.033.

Take “FSRASCITVWLV [YPR160C-A C-terminal 12 aa]”: the protein stability index is, setting by setting: under setting [1], 0.6275 ± 0.0035; (genetic background: wild type) 0.228 ± 0.027.

With FSSEFSSDPTVN [YJL206C C-terminal 12 aa], the protein stability index under setting [1] was found to be 0.69642 ± 0.00024 and the protein stability index (genetic background: wild type) was 0.724 ± 0.034.

Consider “FSVCCKDATEVS [YHR070C-A C-terminal 12 aa]”, for which the protein stability index by setting is: under setting [1], 0.6764 ± 0.0025; (genetic background: wild type) 0.682 ± 0.031.
